We go through 1 protein from article PMC11468790, “New Bacterial Aryl Sulfotransferases: Effective Tools for Sulfation of Polyphenols” (Journal of Agricultural and Food Chemistry, 2024).

Substrate in this data set: O=[N+]([O-])c1ccc(OS(=O)(=O)O)cc1
The data set is described as follows: purified protein. The data set is classed as biochemical, Escherichia coli. The settings on record: varied donor pNPS 0.02-50 mM, acceptor phenol (5-200 mM), 30 °C, activity buffer Tris-glycine pH 8.9.

B1: EcAST (Escherichia coli CFT073) (protein)
chain: AGFKPAPPAGQLGAVIVDPYGNAPLTALVDLDSHVISDVKVTVHGKGEKGVEISYPVGQESLKTYDGVPIFGLYQKFANKVTVEWKENGKVMKDDYVVHTSAIVNNYMDNRSISDLQQTKVIKVAPGFEDRLYLVNTHTFTAQGSDLHWHGEKDKNAGILDAGPATGALPFDIAPFTFIVDTEGEYRWWLDQDTFYDGRDRDINKRGYLMGIRETPRGTFTAVQGQHWYEFDMMGQVLEDHKLPRGFADATHESIETPNGTVLLRVGKSNYRRDDGVHVTTIRDHILEVDKSGRVVDVWDLTKILDPKRDALLGALDAGAVCVNVDLAHAGQQAKLEPDTPFGDALGVGPGRNWAHVNSIAYDAKDDSIILSSRHQGVVKIGRDKQVKWILAPSKGWEKPLASKLLKPVDANGKPITCNENGLCENSDFDFTYTQHTAWISSKGTLTIFDNGDGRHLEQPALPTMKYSRFVEYKIDEKKGTVQQVWEYGKERGYDFYSPITSIIEYQADRNTMFGFGGSIHLFDVGQPTVGKLNEIDYKTKEVKVEIDVLSDKPNQTHYRALLVRPQQMFK
notes: C-terminal His6 tag, pET-26b(+) NcoI/SacI, E. coli BL21(DE3)pLysS, IMAC, ca. 70 kDa
Turning to B1, the Km came out at 710 ± 30 µM, the kcat was determined as 41.1 ± 0.5 s⁻¹ and the kcat/Km is 57000 M⁻¹ s⁻¹.
